How the values were obtained:
[1] = target: cblb_human CBLB (UniProt Q13191)
[2] = target: cblb_human CBLB (UniProt Q13191); remark: listed apart in the source
[3] = target: cblb_human CBLB (UniProt Q13191); remark: listed apart in the source
[4] = target: cblb_human CBLB (UniProt Q13191); remark: listed apart in the source

cblb_human CBLB, sequence (Q13191 whole entry): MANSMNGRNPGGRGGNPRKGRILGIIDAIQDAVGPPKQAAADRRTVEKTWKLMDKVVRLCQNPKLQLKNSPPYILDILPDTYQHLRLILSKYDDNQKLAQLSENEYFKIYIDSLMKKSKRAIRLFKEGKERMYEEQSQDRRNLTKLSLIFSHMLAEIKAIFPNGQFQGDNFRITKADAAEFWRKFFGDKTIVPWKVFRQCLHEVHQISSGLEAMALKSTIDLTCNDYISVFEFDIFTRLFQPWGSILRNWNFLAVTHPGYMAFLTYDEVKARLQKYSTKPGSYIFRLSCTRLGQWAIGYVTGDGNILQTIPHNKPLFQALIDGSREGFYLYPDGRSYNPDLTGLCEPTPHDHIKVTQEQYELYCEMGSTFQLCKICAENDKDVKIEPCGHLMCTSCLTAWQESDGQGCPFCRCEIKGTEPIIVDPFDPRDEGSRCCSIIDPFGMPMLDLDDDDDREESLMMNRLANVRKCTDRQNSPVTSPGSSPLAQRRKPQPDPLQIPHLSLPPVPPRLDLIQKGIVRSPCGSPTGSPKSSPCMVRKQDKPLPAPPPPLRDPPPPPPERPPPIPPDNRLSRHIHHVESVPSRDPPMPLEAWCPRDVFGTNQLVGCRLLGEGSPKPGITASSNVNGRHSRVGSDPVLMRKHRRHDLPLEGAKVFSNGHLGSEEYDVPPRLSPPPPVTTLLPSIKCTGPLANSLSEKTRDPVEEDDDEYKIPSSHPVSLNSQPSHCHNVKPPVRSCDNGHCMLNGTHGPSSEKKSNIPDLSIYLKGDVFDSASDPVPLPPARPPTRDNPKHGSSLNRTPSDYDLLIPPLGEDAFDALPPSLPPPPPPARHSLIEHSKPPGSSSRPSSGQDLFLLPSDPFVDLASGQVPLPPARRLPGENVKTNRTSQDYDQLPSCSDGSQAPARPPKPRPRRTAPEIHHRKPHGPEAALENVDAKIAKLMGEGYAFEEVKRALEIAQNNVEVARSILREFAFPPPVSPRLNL

SH2/SH3 adapter protein NCK1 (Homo sapiens) (from UniProt P16333) W38K;W143K;W229K
effect of a mutation on the interaction [1]: disrupting interaction

SH2/SH3 adapter protein NCK1 (Homo sapiens) (from UniProt P16333) W143K
effect of a mutation on the interaction [2]: disrupting interaction

SH2/SH3 adapter protein NCK1 (Homo sapiens) (from UniProt P16333) W38K
effect of a mutation on the interaction [3]: disrupting interaction

SH2/SH3 adapter protein NCK1 (Homo sapiens) (from UniProt P16333) W229K
effect of a mutation on the interaction [4]: disrupting interaction
